Test results published in FireProtDB (doi:10.1021/bi050342n).

B1: Azurin, P00282 (parent)
chain: MLRKLAAVSLLSLLSAPLLAAECSVDIQGNDQMQFNTNAITVDKSCKQFTVNLSHPGNLPKNVMGHNWVLSTAADMQGVVTDGMASGLDKDYLKPDDSRVIAHTKLIGSGEKDSVTFDVSKLKEGEQYMFFCTFPGHSALMKGTLTLK

Variants of: B1
Details: Pseudomonas aeruginosa (strain ATCC 15692 / DSM 22644 / CIP 104116 / JCM 14847 / LMG 12228 / 1C / PRS 101 / PAO1); pH 7; 25 °C; GdnHCl; Fluorescence, CD; Tris-HCl 100 mM; reversible: Yes; structure 5AZU; whole UniProt chain shown

Variant	ddG of mutation (higher = less stable) [kcal/mol]	denaturant m value [kcal/mol/M]	unfolding free energy [kcal/mol]
MLRKLAAVSLLSLLSAPLLAAECSVDIQGNDQMQFNTNAITVDKSCKQFTVNLSHPGNLPKNVMGHNWVLSTAADMQGVVTDGMASGLDKDYLKPDDSRVIAHTKLIGSGEKDSVTFDVSKLKEGEQYMFFCTFPGHSALMKGTATLK [L145A]	1.67	4.54	11.2
MLRKLAAVSLLSLLSAPLLAAECSVDAQGNDQMQFNTNAITVDKSCKQFTVNLSHPGNLPKNVMGHNWVLSTAADMQGVVTDGMASGLDKDYLKPDDSRVIAHTKLIGSGEKDSVTFDVSKLKEGEQYMFFCTFPGHSALMKGTLTLK [I27A]	3.35	4.3	9.56
MLRKLAAVSLLSLLSAPLLAAECSVDIQGNDQMQFNTNAITADKSCKQFTVNLSHPGNLPKNVMGHNWVLSTAADMQGVVTDGMASGLDKDYLKPDDSRVIAHTKLIGSGEKDSVTFDVSKLKEGEQYMFFCTFPGHSALMKGTLTLK [V42A]	1.67	4.54	11.2
MLRKLAAVSLLSLLSAPLLAAECSADIQGNDQMQFNTNAITVDKSCKQFTVNLSHPGNLPKNVMGHNWVLSTAADMQGVVTDGMASGLDKDYLKPDDSRVIAHTKLIGSGEKDSVTFDVSKLKEGEQYMFFCTFPGHSALMKGTLTLK [V25A]	0.96	4.06	11.9
MLRKLAAVSLLSLLSAPLLAAECSVDIQGNDQMQFNTNAITVDKSCKQFTVNLSHPGNLPKNVMGHNWVLSTAADMQGVGTDGMASGLDKDYLKPDDSRVIAHTKLIGSGEKDSVTFDVSKLKEGEQYMFFCTFPGHSALMKGTLTLK [V80G]	3.11	4.18	9.8
MLRKLAAVSLLSLLSAPLLAAECSVDIQGNDQMQFNTNAITVDKSCKQFTVNLSHPGNLPKNVMGHNAVLSTAADMQGVVTDGMASGLDKDYLKPDDSRVIAHTKLIGSGEKDSVTFDVSKLKEGEQYMFFCTFPGHSALMKGTLTLK [W68A]	3.35	4.78	9.56
MLRKLAAVSLLSLLSAPLLAAECSVDIQGNDQMQFNTNAITVDKSCKQFTVNLSHPGNLPKNVMGHNWVLSTAADMQGVVTDGMASGLDKDYLKPDDSRVIAHTKLIGSGEKDSATFDVSKLKEGEQYMFFCTFPGHSALMKGTLTLK [V115A]	0.96	4.3	11.9
MLRKLAAVSLLSLLSAPLLAAECSVDIQGNDQMQFNTNAITVDKSCKQFTVNLSHPGNLPKNVMGHNWVLSTAADMQGVVTDGMASGLDKDYLKPDDSRVAAHTKLIGSGEKDSVTFDVSKLKEGEQYMFFCTFPGHSALMKGTLTLK [I101A]	1.43	4.78	11.5
MLRKLAAVSLLSLLSAPLLAAECSVDIQGNDQMQFNTNAITVDKSCKQFTVNLSHPGNLPKNVMGHNWVLSTAADMQGVVTDGMASGLDKDYLKPDDSRVIGHTKLIGSGEKDSVTFDVSKLKEGEQYMFFCTFPGHSALMKGTLTLK [A102G]	1.67	4.3	11.2
MLRKLAAVSLLSLLSAPLLAAECSVDIQGNDQMQFNTNAATVDKSCKQFTVNLSHPGNLPKNVMGHNWVLSTAADMQGVVTDGMASGLDKDYLKPDDSRVIAHTKLIGSGEKDSVTFDVSKLKEGEQYMFFCTFPGHSALMKGTLTLK [I40A]	2.39	4.54	10.5
MLRKLAAVSLLSLLSAPLLAAECSVDIQGNDQMQFNTNAITVDKSCKQFTVNASHPGNLPKNVMGHNWVLSTAADMQGVVTDGMASGLDKDYLKPDDSRVIAHTKLIGSGEKDSVTFDVSKLKEGEQYMFFCTFPGHSALMKGTLTLK [L53A]	1.67	4.78	11.2
MLRKLAAVSLLSLLSAPLLAAECSVDIQGNDQMQFNTNAITVDKSCKQFTVNLSHPGNLPKNVMGHNWVASTAADMQGVVTDGMASGLDKDYLKPDDSRVIAHTKLIGSGEKDSVTFDVSKLKEGEQYMFFCTFPGHSALMKGTLTLK [L70A]	1.79	4.42	11.1
MLRKLAAVSLLSLLSAPLLAAECSVDIQGNDQMQFNTNAITVDKSCKQFTANLSHPGNLPKNVMGHNWVLSTAADMQGVVTDGMASGLDKDYLKPDDSRVIAHTKLIGSGEKDSVTFDVSKLKEGEQYMFFCTFPGHSALMKGTLTLK [V51A]	1.67	4.54	11.2
MLRKLAAVSLLSLLSAPLLAAECSVDIQGNDQMQFNTNAITVDKSCKQFTVNLSHPGNLPKNVMGHNWVLSTAADMQGVVTDGMASGLDKDYLKPDDSRVIAHTKLIGSGEKDSVTFDVSKLKEGEQAMFFCTFPGHSALMKGTLTLK [Y128A]	3.59	4.42	9.32
MLRKLAAVSLLSLLSAPLLAAECSVDIQGNDQMQFNTNAITVDKSCKQFTVNLSHPGNLPKNVMGHNWVLSTAADMQGVVTDGMASGLDKDYLKPDDSRVIAHTKLIGSGEKDSVTFDVSKLKEGEQYMFFCTFPGHSALAKGTLTLK [M141A]	2.87	4.18	10
